In PMC12373829 (Nature Communications, 2025):

Columns and labels:
[1] = target: T1, acarbose-preferred glucosidase (Apg) (Klebsiella grimontii, UniProt A0ABD7ANA7, DEL138-152); assay: X-ray crystal structure; assay type: binding
T1 sequence (A0ABD7ANA7 1-605 DEL138-152): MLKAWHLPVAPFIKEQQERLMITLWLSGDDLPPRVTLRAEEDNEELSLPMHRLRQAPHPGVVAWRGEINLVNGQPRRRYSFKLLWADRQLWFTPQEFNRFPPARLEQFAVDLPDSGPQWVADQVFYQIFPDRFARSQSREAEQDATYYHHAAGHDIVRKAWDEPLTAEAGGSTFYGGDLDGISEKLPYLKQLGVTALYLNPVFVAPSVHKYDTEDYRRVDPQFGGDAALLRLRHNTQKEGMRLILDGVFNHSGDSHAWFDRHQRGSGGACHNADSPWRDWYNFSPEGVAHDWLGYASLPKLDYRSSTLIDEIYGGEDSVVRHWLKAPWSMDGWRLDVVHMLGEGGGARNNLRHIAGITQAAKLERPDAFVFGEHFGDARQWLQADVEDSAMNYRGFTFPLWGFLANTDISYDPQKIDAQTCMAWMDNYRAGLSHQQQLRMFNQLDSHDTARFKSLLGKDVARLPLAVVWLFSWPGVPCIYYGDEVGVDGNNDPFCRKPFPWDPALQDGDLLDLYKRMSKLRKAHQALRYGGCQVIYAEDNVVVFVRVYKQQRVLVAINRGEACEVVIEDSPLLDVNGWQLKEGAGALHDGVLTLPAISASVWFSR

[2] = target: acarbose-preferred glucosidase (Apg), wild type (K. grimontii TD1); assay: SEC
purified protein [3] = substrate: C[C@H]1O[C@H](O[C@H]2[C@H](O)[C@@H](O)[C@@H](O[C@H]3[C@H](O)[C@@H](O)C(O)O[C@@H]3CO)O[C@@H]2CO)[C@H](O)[C@@H](O)[C@@H]1N[C@H]1C=C(CO)[C@@H](O)[C@H](O)[C@H]1O; assay: purified protein; details: active site; D448 nucleophile, E373/R334 proton donor
purified protein [4] = substrate: C[C@H]1O[C@H](O[C@H]2[C@H](O)[C@@H](O)[C@@H](O)O[C@@H]2CO)[C@H](O)[C@@H](O)[C@@H]1N[C@H]1C=C(CO)[C@@H](O)[C@H](O)[C@H]1O; assay: purified protein; details: active site

Molecule: OC[C@H]1O[C@H](O)[C@H](O)[C@@H](O)[C@@H]1O [glucose]
- X-ray crystal structure (co-crystallization) [1]: Crystals of the glucose complex were obtained by co-crystallization of the ∆loop A mutant

Molecule: acarbose-preferred glucosidase (Apg), wild type (enzyme)
- stoichiometry N [2]: 2

B1: acarbose-preferred glucosidase (Apg) (Klebsiella grimontii) (protein)
chain: MLKAWHLPVAPFIKEQQERLMITLWLSGDDLPPRVTLRAEEDNEELSLPMHRLRQAPHPGVVAWRGEINLVNGQPRRRYSFKLLWADRQLWFTPQEFNRFPPARLEQFAVDLPDSGPQWVADQVFYQIFPDRFARSQSREAEQDATYYHHAAGHDIVRKAWDEPLTAEAGGSTFYGGDLDGISEKLPYLKQLGVTALYLNPVFVAPSVHKYDTEDYRRVDPQFGGDAALLRLRHNTQKEGMRLILDGVFNHSGDSHAWFDRHQRGSGGACHNADSPWRDWYNFSPEGVAHDWLGYASLPKLDYRSSTLIDEIYGGEDSVVRHWLKAPWSMDGWRLDVVHMLGEGGGARNNLRHIAGITQAAKLERPDAFVFGEHFGDARQWLQADVEDSAMNYRGFTFPLWGFLANTDISYDPQKIDAQTCMAWMDNYRAGLSHQQQLRMFNQLDSHDTARFKSLLGKDVARLPLAVVWLFSWPGVPCIYYGDEVGVDGNNDPFCRKPFPWDPALQDGDLLDLYKRMSKLRKAHQALRYGGCQVIYAEDNVVVFVRVYKQQRVLVAINRGEACEVVIEDSPLLDVNGWQLKEGAGALHDGVLTLPAISASVWFSR
- Km (purified protein [3]): 2.600 ± 0.652 µM
- Km (purified protein [4]): 6.642 ± 0.371 µM
